Test results published in article PMC7528653.
Where two headings read alike, the source gives them in different places.

T1: MSL2 (Drosophila melanogaster, UniProt P50534 1-773)
T1 sequence: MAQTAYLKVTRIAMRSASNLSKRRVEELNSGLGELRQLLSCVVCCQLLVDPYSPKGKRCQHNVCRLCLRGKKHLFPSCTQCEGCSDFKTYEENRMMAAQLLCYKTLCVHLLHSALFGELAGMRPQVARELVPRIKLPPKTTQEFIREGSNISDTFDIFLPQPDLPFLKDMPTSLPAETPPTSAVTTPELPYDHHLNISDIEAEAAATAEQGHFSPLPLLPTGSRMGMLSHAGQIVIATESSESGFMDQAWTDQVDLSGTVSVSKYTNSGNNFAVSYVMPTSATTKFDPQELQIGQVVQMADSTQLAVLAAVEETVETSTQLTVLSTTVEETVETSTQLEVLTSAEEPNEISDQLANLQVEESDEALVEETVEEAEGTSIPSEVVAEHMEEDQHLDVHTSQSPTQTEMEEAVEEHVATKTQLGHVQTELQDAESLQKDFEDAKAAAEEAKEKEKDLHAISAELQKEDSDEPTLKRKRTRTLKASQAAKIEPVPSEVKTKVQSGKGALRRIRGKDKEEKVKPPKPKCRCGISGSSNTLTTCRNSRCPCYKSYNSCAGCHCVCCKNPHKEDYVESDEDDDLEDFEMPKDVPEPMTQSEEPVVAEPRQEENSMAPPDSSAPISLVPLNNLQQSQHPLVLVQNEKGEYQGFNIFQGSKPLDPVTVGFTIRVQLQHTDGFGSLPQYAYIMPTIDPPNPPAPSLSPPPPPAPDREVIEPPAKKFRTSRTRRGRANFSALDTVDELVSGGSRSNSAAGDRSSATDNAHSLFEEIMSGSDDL

T2: MSL1 (Drosophila melanogaster, UniProt P50535 1-1039)
T2 sequence: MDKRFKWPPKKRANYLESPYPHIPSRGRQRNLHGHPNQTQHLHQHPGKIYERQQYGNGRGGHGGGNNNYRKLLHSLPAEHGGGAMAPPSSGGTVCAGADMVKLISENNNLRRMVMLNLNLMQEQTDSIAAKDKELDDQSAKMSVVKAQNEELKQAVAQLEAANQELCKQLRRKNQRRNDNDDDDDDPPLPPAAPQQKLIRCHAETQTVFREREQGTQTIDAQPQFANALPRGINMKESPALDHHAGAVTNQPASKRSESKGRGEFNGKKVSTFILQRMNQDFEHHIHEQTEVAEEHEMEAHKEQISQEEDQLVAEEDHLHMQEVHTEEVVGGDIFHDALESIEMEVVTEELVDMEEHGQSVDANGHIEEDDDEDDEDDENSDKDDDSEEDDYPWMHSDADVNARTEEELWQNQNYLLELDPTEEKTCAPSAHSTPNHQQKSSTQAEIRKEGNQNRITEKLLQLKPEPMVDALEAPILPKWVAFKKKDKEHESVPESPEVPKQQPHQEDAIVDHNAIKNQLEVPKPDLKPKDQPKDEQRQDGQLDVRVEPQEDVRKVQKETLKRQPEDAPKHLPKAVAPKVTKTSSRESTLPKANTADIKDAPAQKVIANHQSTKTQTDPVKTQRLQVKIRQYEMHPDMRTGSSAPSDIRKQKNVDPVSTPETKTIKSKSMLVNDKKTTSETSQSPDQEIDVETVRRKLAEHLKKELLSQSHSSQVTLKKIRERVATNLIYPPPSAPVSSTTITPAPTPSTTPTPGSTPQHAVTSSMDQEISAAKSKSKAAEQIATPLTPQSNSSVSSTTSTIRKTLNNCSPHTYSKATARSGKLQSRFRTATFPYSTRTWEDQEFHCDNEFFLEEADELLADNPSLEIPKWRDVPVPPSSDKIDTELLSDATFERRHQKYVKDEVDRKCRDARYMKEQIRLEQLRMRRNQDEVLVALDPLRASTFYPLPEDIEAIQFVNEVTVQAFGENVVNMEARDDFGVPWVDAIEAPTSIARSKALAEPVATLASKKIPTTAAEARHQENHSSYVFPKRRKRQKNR


Columns and labels:
Assay in all cases: UV crosslinking
[1] = biological target: T3, DCCcore (MSL1-MSL2-MSL3-MOF) (Drosophila melanogaster, UniProt P50535;P50534;P50536;O02193 1-1039;1-773;1-512;1-827)
MSL2 = biological target: T1, MSL2
MSL1 = biological target: T2, MSL1
[2] = biological target: T3, DCCcore (MSL1-MSL2-MSL3-MOF); remark: listed apart in the source

T3 sequence (P50536 whole entry, chain 3 of 2): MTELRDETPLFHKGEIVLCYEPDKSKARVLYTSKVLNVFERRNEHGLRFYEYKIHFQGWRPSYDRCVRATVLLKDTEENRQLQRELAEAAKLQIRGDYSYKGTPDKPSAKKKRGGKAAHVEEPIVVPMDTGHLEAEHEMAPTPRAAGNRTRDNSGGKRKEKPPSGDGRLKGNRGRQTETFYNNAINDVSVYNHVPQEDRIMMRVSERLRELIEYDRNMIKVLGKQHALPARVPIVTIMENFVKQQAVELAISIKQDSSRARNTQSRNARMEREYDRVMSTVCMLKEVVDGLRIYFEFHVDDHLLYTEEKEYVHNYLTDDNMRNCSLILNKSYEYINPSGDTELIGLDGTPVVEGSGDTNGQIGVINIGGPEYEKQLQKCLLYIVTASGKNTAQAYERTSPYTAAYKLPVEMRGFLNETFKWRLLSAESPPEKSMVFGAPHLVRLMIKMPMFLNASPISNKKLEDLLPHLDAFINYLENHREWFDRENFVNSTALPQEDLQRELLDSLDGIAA
T3 sequence (O02193 whole entry, chain 4 of 2): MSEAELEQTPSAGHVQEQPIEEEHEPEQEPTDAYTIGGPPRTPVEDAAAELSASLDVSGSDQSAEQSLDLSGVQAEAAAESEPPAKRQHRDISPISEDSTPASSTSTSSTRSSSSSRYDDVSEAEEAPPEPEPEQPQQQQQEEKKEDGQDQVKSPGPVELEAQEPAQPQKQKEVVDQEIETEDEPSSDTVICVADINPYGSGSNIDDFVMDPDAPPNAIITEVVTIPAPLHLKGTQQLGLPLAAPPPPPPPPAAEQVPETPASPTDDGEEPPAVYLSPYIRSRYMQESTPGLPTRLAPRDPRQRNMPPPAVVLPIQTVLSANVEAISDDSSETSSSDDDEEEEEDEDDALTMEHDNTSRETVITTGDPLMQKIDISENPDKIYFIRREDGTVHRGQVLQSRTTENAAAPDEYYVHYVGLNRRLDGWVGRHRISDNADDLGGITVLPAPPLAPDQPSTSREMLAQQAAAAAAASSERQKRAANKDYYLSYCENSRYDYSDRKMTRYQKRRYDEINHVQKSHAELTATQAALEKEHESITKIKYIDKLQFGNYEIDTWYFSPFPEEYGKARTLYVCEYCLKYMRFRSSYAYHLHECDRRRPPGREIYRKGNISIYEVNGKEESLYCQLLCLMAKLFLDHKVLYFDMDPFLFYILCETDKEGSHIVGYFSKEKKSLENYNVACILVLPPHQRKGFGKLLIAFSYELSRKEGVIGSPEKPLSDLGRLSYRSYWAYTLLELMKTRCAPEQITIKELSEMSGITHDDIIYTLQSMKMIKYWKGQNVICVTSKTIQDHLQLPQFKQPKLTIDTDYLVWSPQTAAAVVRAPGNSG

| Binder | binding result [1] | binding result (MSL2) | binding result (MSL1) | binding result [2] |
| --- | --- | --- | --- | --- |
| UGGGUAACGUUUUACGCGCCUU (structured_RNA) [roX2 SL7-3'] | binds | binds | binds |  |
| AUUAAGCAAAUAUAUAUGCAUAUAU (structured_RNA) [roX2 SL7-Loop] |  |  |  | no binding |
